Test results reported in PMC4498774.

Target: T1, His-BaeR (Acinetobacter baumannii ATCC 17978) (UniProt A0ABX6CJ55)
T1 sequence: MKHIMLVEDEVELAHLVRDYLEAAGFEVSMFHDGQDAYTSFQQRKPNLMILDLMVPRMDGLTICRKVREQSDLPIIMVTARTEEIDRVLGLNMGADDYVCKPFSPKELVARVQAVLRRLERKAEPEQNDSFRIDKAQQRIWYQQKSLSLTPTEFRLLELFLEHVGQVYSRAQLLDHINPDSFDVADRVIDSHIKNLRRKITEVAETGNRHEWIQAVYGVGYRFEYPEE
Assay: EMSA

| Sequence | binding |
| --- | --- |
| TTTCTGAGCAGCAGCAGCTTGCTGTTTCTCATCGGAGCCTTTGCTACAACCAACAAGCGCGATACTTGTTGCTAATGCGCAAGCAGTAAGGGCTGGTGCCCAAAGCTTAGCCGACATCATTGTTCCACCTCGTTTAGATAAAAT (double strand) [adeI promoter region (144 bp)] | no binding |
| GCCTTCACGTTTTAAATAATTTTCAATAATGTCGCCAATATCGTAGTCATCTTCTACCACAAGAATAACTTTATCTTGGCAATCAAAAGAAAAAGAATGATCAAACATAGAAAATCTGGCTATAGAAAGTGCTTCAACTCATCATACGCTAAATTATCCGTATTTCTCCACACTTACTCCACACTTTAGTGATTATCCCTACACACTCATCAAAAATAATACGAACATCAAAAACTCACTAGG (double strand) [adeA promoter region (243 bp)] | no binding |
